Laboratory results reported in patent publication US20200024330A1.

What was measured:
Experiment in all cases: cell-based or functional assay
[1] = target: Env of the clade A HIV-1 pseudoviruses of the cross-clade 162-pseudovirus panel (n = 26)
[2] = target: Env of the clade AG HIV-1 pseudoviruses of the cross-clade 162-pseudovirus panel (n = 10)
[3] = target: Env of the clade C HIV-1 pseudoviruses of the cross-clade 162-pseudovirus panel (n = 27)
[4] = target: Env of the clade F HIV-1 pseudoviruses of the cross-clade 162-pseudovirus panel (n = 15)
[5] = target: HIV-1 Env of isolate 92TH021 (HIV-1)
[6] = target: HIV-1 Env of isolate JR-CSF (HIV-1) (UniProt P20871)
[7] = target: HIV-1 JR-CSF Env D325A (HIV-1 isolate JR-CSF) (UniProt P20871)
[8] = target: HIV-1 JR-CSF Env D417A (HIV-1 (isolate JR-CSF)) (UniProt P20871)
[9] = target: HIV-1 JR-CSF Env E321aA (HIV-1 isolate JR-CSF) (UniProt P20871)
[10] = target: HIV-1 JR-CSF Env F317A (HIV-1 isolate JR-CSF) (UniProt P20871)
[11] = target: HIV-1 JR-CSF Env I323A (HIV-1 isolate JR-CSF) (UniProt P20871)
[12] = target: HIV-1 JR-CSF Env I326A (HIV-1 isolate JR-CSF) (UniProt P20871)
[13] = target: HIV-1 JR-CSF Env I420A (HIV-1 (isolate JR-CSF)) (UniProt P20871)
[14] = target: HIV-1 JR-CSF Env K305A (HIV-1 JR-CSF) (UniProt P20871)
[15] = target: HIV-1 JR-CSF Env K343A (HIV-1 isolate JR-CSF) (UniProt P20871)
[16] = target: HIV-1 JR-CSF Env K421A (HIV-1 (isolate JR-CSF)) (UniProt P20871)
[17] = target: HIV-1 JR-CSF Env L416A (HIV-1 (isolate JR-CSF)) (UniProt P20871)
[18] = target: HIV-1 JR-CSF Env N262A (HIV-1 JR-CSF) (UniProt P20871)
[19] = target: HIV-1 JR-CSF Env N276A (HIV-1 JR-CSF) (UniProt P20871)
[20] = target: HIV-1 JR-CSF Env N295A (HIV-1 JR-CSF) (UniProt P20871)
[21] = target: HIV-1 JR-CSF Env N339A (HIV-1 isolate JR-CSF) (UniProt P20871)
[22] = target: HIV-1 JR-CSF Env N355A (HIV-1 isolate JR-CSF) (UniProt P20871)
[23] = target: HIV-1 JR-CSF Env N386A (HIV-1 isolate JR-CSF) (UniProt P20871)
[24] = target: HIV-1 JR-CSF Env N392Q (HIV-1 (isolate JR-CSF)) (UniProt P20871)
[25] = target: HIV-1 JR-CSF Env N396A (HIV-1 (isolate JR-CSF)) (UniProt P20871)
[26] = target: HIV-1 JR-CSF Env P299A (HIV-1 JR-CSF) (UniProt P20871)
[27] = target: HIV-1 JR-CSF Env P313A (HIV-1 JR-CSF) (UniProt P20871)
[28] = target: HIV-1 JR-CSF Env Q422A (HIV-1 (isolate JR-CSF)) (UniProt P20871)
[29] = target: HIV-1 JR-CSF Env R304A (HIV-1 JR-CSF) (UniProt P20871)
[30] = target: HIV-1 JR-CSF Env R315A (HIV-1 isolate JR-CSF) (UniProt P20871)
[31] = target: HIV-1 JR-CSF Env R327A (HIV-1 isolate JR-CSF) (UniProt P20871)
[32] = target: HIV-1 JR-CSF Env R419A (HIV-1 (isolate JR-CSF)) (UniProt P20871)
[33] = target: HIV-1 JR-CSF Env S306A (HIV-1 JR-CSF) (UniProt P20871)
[34] = target: HIV-1 JR-CSF Env S387A (HIV-1 (isolate JR-CSF)) (UniProt P20871)
[35] = target: HIV-1 JR-CSF Env S393A (HIV-1 (isolate JR-CSF)) (UniProt P20871)
[36] = target: HIV-1 JR-CSF Env T202A (HIV-1 JR-CSF) (UniProt P20871)
[37] = target: HIV-1 JR-CSF Env T303A (HIV-1 JR-CSF) (UniProt P20871)
[38] = target: HIV-1 JR-CSF Env V292A (HIV-1 JR-CSF) (UniProt P20871)
[39] = target: HIV-1 JR-CSF Env W395A (HIV-1 (isolate JR-CSF)) (UniProt P20871)

B1: PGT-130 (antibody, V domains shown)
VH: QVQLQESGPGLVKPAETLSLTCSVSGESINTGHYYWGWVRQVPGKGLEWIGHIHYTTAVLHNPSLKSRLTIKIYTLRNQITLRLSNVTAADTAVYHCVRSGGDILYYYEWQKPHWFSPWGPGIHVTVSS
VL: QSALTQPPSASGSLGQSVTISCNGTSSDIGGWNFVSWYQQFPGRAPRLIIFEVNKRPSGVPGRFSGSKSGNSASLTVSGLQSDDEGQYFCSSLFGRWDVVFGGGTKLTVL
Median IC50 against viruses neutralized with an IC50 <50 µg/ml [1]: 0.09 µg/mL | Median IC50 against viruses neutralized with an IC50 <50 µg/ml [2]: 0.04 µg/mL | Median IC50 against viruses neutralized with an IC50 <50 µg/ml [3]: 0.15 µg/mL | Median IC50 against viruses neutralized with an IC50 <50 µg/ml [4]: 0.07 µg/mL | Polyclonal Transfectant Neutralization Index (well 5147 N6) [5]: 4.2 | Primary Neutralization Index (B cell culture well 5147 N6) [5]: 538 | Polyclonal Transfectant Neutralization Index (well 5147 N6) [6]: 1.24 | Primary Neutralization Index (B cell culture well 5147 N6) [6]: 19.3 | Fold IC50 increase relative to wild-type [7]: > 1000 fold | Fold IC50 increase relative to wild-type [8]: 1 fold | Fold IC50 increase relative to wild-type [9]: 1.7 fold | Fold IC50 increase relative to wild-type [10]: 17 fold | Fold IC50 increase relative to wild-type [11]: 0.8 fold | Fold IC50 increase relative to wild-type [12]: 1.3 fold | Fold IC50 increase relative to wild-type [13]: 9.8 fold | Fold IC50 increase relative to wild-type [14]: 6.9 fold | Fold IC50 increase relative to wild-type [15]: 1.1 fold | Fold IC50 increase relative to wild-type [16]: 2.9 fold | Fold IC50 increase relative to wild-type [17]: 1 fold | Fold IC50 increase relative to wild-type [18]: 0.7 fold | Fold IC50 increase relative to wild-type [19]: 1 fold | Fold IC50 increase relative to wild-type [20]: 0.7 fold | Fold IC50 increase relative to wild-type [21]: 0.2 fold | Fold IC50 increase relative to wild-type [22]: 1.3 fold | Fold IC50 increase relative to wild-type [23]: 0.1 fold | Fold IC50 increase relative to wild-type [24]: 1.2 fold | Fold IC50 increase relative to wild-type [25]: 1 fold | Fold IC50 increase relative to wild-type [26]: 0.8 fold | Fold IC50 increase relative to wild-type [27]: 0.3 fold | Fold IC50 increase relative to wild-type [28]: 1 fold | Fold IC50 increase relative to wild-type [29]: 2.5 fold | Fold IC50 increase relative to wild-type [30]: 0.6 fold | Fold IC50 increase relative to wild-type [31]: 2.4 fold | Fold IC50 increase relative to wild-type [32]: 2.6 fold | Fold IC50 increase relative to wild-type [33]: 1.5 fold | Fold IC50 increase relative to wild-type [34]: 0.7 fold | Fold IC50 increase relative to wild-type [35]: 0.7 fold | Fold IC50 increase relative to wild-type [36]: 1.2 fold | Fold IC50 increase relative to wild-type [37]: > 250 fold | Fold IC50 increase relative to wild-type [38]: 0.9 fold | Fold IC50 increase relative to wild-type [39]: 0.6 fold

B2: PGT-128 (antibody, V domains shown)
VH: QPQLQESGPTLVEASETLSLTCAVSGDSTAACNSFWGWVRQPPGKGLEWVGSLSHCASYWNRGWTYHNPSLKSRLTLALDTPKNLVFLKLNSVTAADTATYYCARFGGEVLRYTDWPKPAWVDLWGRGTLVTVSS
VL: QSALTQPPSASGSPGQSITISCTGTSNNFVSWYQQHAGKAPKLVIYDVNKRPSGVPDRFSGSKSGNTASLTVSGLQTDDEAVYYCGSLVGNWDVIFGGGTKLTVL
Median IC50 against viruses neutralized with an IC50 <50 µg/ml [1]: 0.01 µg/mL | Median IC50 against viruses neutralized with an IC50 <50 µg/ml [2]: 0.67 µg/mL | Median IC50 against viruses neutralized with an IC50 <50 µg/ml [3]: 0.04 µg/mL | Median IC50 against viruses neutralized with an IC50 <50 µg/ml [4]: 0.52 µg/mL | Polyclonal Transfectant Neutralization Index (well 5114 A19) [5]: 10 | Primary Neutralization Index (B cell culture well 5114 A19) [5]: 6.6 | Polyclonal Transfectant Neutralization Index (well 5114 A19) [6]: 136 | Primary Neutralization Index (B cell culture well 5114 A19) [6]: 77.5 | Fold IC50 increase relative to wild-type [7]: 0.5 fold | Fold IC50 increase relative to wild-type [8]: 0.5 fold | Fold IC50 increase relative to wild-type [9]: 1.3 fold | Fold IC50 increase relative to wild-type [10]: 0.8 fold | Fold IC50 increase relative to wild-type [11]: 3 fold | Fold IC50 increase relative to wild-type [12]: 1.6 fold | Fold IC50 increase relative to wild-type [13]: 0.8 fold | Fold IC50 increase relative to wild-type [14]: 1.8 fold | Fold IC50 increase relative to wild-type [15]: 1 fold | Fold IC50 increase relative to wild-type [16]: 2 fold | Fold IC50 increase relative to wild-type [17]: 1.1 fold | Fold IC50 increase relative to wild-type [18]: 1.6 fold | Fold IC50 increase relative to wild-type [19]: 0.6 fold | Fold IC50 increase relative to wild-type [20]: 1 fold | Fold IC50 increase relative to wild-type [21]: 0.8 fold | Fold IC50 increase relative to wild-type [22]: 0.7 fold | Fold IC50 increase relative to wild-type [23]: 1.1 fold | Fold IC50 increase relative to wild-type [24]: 0.9 fold | Fold IC50 increase relative to wild-type [25]: 0.9 fold | Fold IC50 increase relative to wild-type [26]: 1.2 fold | Fold IC50 increase relative to wild-type [27]: 1 fold | Fold IC50 increase relative to wild-type [28]: 0.2 fold | Fold IC50 increase relative to wild-type [29]: 0.7 fold | Fold IC50 increase relative to wild-type [30]: 0.4 fold | Fold IC50 increase relative to wild-type [31]: 2.5 fold | Fold IC50 increase relative to wild-type [32]: 0.5 fold | Fold IC50 increase relative to wild-type [33]: 1.1 fold | Fold IC50 increase relative to wild-type [34]: 1.2 fold | Fold IC50 increase relative to wild-type [35]: 1.4 fold | Fold IC50 increase relative to wild-type [36]: 1.1 fold | Fold IC50 increase relative to wild-type [37]: > 500 fold | Fold IC50 increase relative to wild-type [38]: 2.1 fold | Fold IC50 increase relative to wild-type [39]: 0.8 fold
